Measured values: US20230312739A1 (BIOTHEUS, published 2023)

Legend:
[1] = biological target: T1, human CD73 on the cell surface (tumor cells endogenously expressing human CD73; CHOS-human CD73) (human, UniProt P21589 27-549); assay: full-field cell scanning analyzer (Celigo), percent fluorescent cells, H2030 cells endogenously expressing human CD73
T1 construct: The endogenous CD73 of the human tumor lines (MDA-MB-231, Calu6, SK-ME-S, H2030, SKLU1, BT549, A375, HCC44) is treated as the same protein
T1 sequence: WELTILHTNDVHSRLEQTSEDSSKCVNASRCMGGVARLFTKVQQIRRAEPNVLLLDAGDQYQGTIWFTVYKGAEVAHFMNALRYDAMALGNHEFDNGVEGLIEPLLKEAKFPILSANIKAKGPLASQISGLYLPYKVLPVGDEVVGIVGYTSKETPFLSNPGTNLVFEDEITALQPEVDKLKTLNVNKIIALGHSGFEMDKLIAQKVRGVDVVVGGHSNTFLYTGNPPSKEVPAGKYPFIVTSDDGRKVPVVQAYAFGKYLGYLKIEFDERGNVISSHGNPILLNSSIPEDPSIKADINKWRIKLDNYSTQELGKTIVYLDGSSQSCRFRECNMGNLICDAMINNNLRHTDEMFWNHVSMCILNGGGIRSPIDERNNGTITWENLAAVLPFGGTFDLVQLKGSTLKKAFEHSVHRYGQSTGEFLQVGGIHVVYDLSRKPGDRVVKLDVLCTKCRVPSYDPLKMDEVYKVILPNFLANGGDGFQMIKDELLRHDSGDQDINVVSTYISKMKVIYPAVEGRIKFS
Experimental: (§1) Experimental method: 10,000 cells were plated on a flat-bottom 96-well plate with 100 μL DMEM+10% FBS/well, cultured overnight so that the cells adhered to the well, and the supernatant was discarded on the next day. Serial 3-fold dilutions of antibody for 8 points were performed by diluting ⅓ of the total volume (100 μL) in 200 μL DMEM. 100 μL of the diluted antibody was added to each well of the cell plate (the supernatants of fused clones or subclones were used for screening), 100 μL of DMEM was added to the corresponding negative control well, and incubation was performed at room temperature for 1 hour. After the supernatant was discarded, 100 μL of secondary antibody (DyLight488 goat anti-mouse IgG (Abcam, Cat. No. ab97015)) was added to each well at a concentration of 5 μg/mL (diluted in DMEM), and incubation was performed for 0.5 hours at room temperature. After staining, the supernatant was discarded, followed by washing once with PBS+2% FBS, then 100 μL of PBS+2% FBS was added to each well, and then reading was performed on analyzer. A full-field cell scanning analyzer (Nexcelom Company, model Celigo® Image Cytometer) was used to measure the reading of the experimental plate. […] The binding effect of the anti-CD73 antibody to the CD73-expressing cell line was determined according to the percentage. […]

[2] = biological target: T1, human CD73 on the cell surface (tumor …); assay: full-field cell scanning analyzer (Celigo), percent fluorescent cells, A375 cells endogenously expressing human CD73
Experimental: as §1

[3] = biological target: T2, murine CD73 on 4T1 cells (murine, UniProt Q61503 29-551); assay: cell binding on adherent 4T1 cells, DyLight488 goat anti-mouse IgG, full-field cell scanning analyzer (Celigo), % fluorescent cells
T2 construct: whole, on cells; also called 4T1 (endogenously expressing murine CD73)
T2 sequence (looked up): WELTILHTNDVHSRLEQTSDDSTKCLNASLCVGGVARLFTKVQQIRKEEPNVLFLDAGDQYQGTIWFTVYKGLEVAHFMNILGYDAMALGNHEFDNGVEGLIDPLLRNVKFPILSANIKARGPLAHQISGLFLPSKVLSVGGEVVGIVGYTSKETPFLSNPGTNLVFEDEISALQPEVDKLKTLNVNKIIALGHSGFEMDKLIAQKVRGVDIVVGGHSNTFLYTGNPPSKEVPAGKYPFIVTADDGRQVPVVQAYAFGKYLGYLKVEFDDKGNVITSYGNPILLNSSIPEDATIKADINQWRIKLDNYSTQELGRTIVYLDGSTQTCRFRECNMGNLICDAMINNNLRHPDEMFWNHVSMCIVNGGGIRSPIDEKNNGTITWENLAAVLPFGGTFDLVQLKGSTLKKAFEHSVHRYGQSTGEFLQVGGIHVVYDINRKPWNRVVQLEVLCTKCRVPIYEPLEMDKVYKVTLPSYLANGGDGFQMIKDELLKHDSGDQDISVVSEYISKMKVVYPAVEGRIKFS
Experimental: as §1

[4] = biological target: T1, human CD73 on the cell surface (tumor …); assay: cell binding on adherent CHOS-human CD73 cells, DyLight488 goat anti-mouse IgG, full-field cell scanning analyzer (Celigo), % fluorescent cells
Experimental: as §1

[5] = biological target: T1, human CD73 on the cell surface (tumor …); assay: full-field cell scanning analyzer (Celigo), percent fluorescent cells, MDA-MB-231 cells endogenously expressing human CD73
Experimental: as §1

B1: murine antibody 13D12 (antibody, V domains shown)
VH: DVKLQESGPAMVKPSQSLSLTCTVTGYSITSGYDWHWIRLFPGNKLEWMGYISYSGYTDYSPSLKSRISITHDTSKNHFFLKLHSVTTEDTATYYCTRGDHSYAMDYWGQGTSVTVS
VL: DIVMTQSHKFMSTSVGDRVSITCKASQAVGTAVAWYQQKPGQSPKLLIYWASSRHTGVPDRFTGSRSGTDFTLTISSVQSEDLADYFCQQYSSYPLTFGGGTNLEIK
notes: Mouse monoclonal antibody purified from hybridoma supernatant; also called mouse monoclonal antibody 13D12
B1 was tested, and the EC50 [1] was 0.46 µg/mL, the EC50 [2] was 2.43 µg/mL and the binding result [3] was “no binding”. The “EC50 (read off the curve)” value [4] was about 0.06 µg/mL and the EC50 [5] was 0.9 µg/mL.
